# Assay results reported in paper PMC2853113.
# Changes are numbered by the printed parent chain. Read-outs that look alike come from different tables or passages of the source.
# T1: YvoA wild-type (Bacillus subtilis, UniProt O34817 1-243)
# T1 sequence: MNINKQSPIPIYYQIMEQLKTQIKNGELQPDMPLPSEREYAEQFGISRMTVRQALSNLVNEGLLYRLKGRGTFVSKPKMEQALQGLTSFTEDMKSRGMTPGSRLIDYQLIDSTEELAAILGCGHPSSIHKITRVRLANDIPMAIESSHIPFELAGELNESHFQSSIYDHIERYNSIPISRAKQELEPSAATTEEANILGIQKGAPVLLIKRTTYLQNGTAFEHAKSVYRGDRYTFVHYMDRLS
# T2: YvoA-E61C-L242C (Bacillus subtilis, UniProt O34817 1-243, E61C;L242C)
# T2 sequence: T1 sequence with E61C, L242C
# T3: YvoA-K24C-G97C (Bacillus subtilis, UniProt O34817 1-243, K24C;G97C)
# T3 sequence: T1 sequence with K24C, G97C
# B1: YvoA operator dsDNA (18mer) (dsDNA)
# DNA 1: ATTGGTATAGATCACTAG
# DNA 2: CTAGTGATCTATACCAAT
# How the values were obtained:
# YvoA wild-type [1] = target: T1, YvoA wild-type; test: ITC
# YvoA-E61C-L242C = target: T2, YvoA-E61C-L242C; test: analytical gel filtration
# YvoA wild-type [2] = target: T1, YvoA wild-type; test: ITC; remark: listed apart in the source
# YvoA-K24C-G97C = target: T3, YvoA-K24C-G97C; test: analytical gel filtration
binder,measurement,setting,value
B1,Kd,YvoA wild-type [1],131 nM
same,binding result,YvoA-E61C-L242C,binds
same,Kd,YvoA wild-type [2],2.9 nM
same,binding result,YvoA-K24C-G97C,binds
